In PMC8500918:

Biological target: Cadherin-11 extracellular domain 1 (EC1), wild type
Assay: NMR

Chain of Cadherin-11 extracellular domain 1 (EC1), wild type (P55288 1-98): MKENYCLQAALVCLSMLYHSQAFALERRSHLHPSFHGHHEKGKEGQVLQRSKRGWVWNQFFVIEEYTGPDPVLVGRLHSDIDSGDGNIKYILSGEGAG

Substance: Cadherin-11 extracellular domain 1 (EC1), wild type (domain or fragment)
- stoichiometry N: 2
